{"source": "paper PMC4675670", "test_system": "O=C(O)[C@@H]1CCCN1", "experiment": "enzyme kinetics, Km", "format": "biochemical, Plasmodium falciparum", "settings": "proline-binding pocket"}
{"substance": "cytoplasmic prolyl-tRNA synthetase (PfcPRS, PF3D7_1213800) (Plasmodium falciparum 3D7)", "values": [{"measurement": "Km", "result": 117.0, "unit": "µM"}]}
{"substance": "cytoplasmic prolyl-tRNA synthetase (PfcPRS, PF3D7_1213800) (Plasmodium falciparum 3D7; L482H)", "values": [{"measurement": "Km", "result": 747.7, "unit": "µM"}]}
